Measured values taken from patent US20240392004A1 (IMMUNOWAKE, published 2024).
Substitutions are numbered along the chain they refer to. In names and notes the source's numbering stands.

B1: IL-12(E59A/F60A)/CD155-Fc (IL-12 at hinge) (Fc fusion)
chain 1: WPPPGTGDVVVQAPTQVPGFLGDSVTLPCYLQVPNMEVTHVSQLTWARHGESGSMAVFHQTQGPSYSESKRLEFVAARLGAELRNASLRMFGLRVEDEGNYTCLFVTFPQGSRSVDIWLRVLAKPQNTAEVQKVQLTGEPVPMARCVSTGGRPPAQITWHSDLGGMPNTSQVPGFLSGTVTVTSLWILVPSSQVDGKNVTCKVEHESFEKPQLLTVNLTVYYPPEVSISGYDNNWYLGQNEATLTCDARSNPEPTGYNWSTTMGPLPPFAVAQGAQLLIRPVDKPINTTLICNVTNALGARQAELTVQVKEGPPSEHSGISRNGGGGSGGGIWELKKDVYVVELDWYPDAPGEMVVLTCDTPEEDGITWTLDQSSEVLGSGKTLTIQVKAAGDAGQYTCHKGGEVLSHSLLLLHKKEDGIWSTDILKDQKEPKNKTFLRCEAKNYSGRFTCWWLTTISTDLTFSVKSSRGSSDPQGVTCGAATLSAERVRGDNKEYEYSVECQEDSACPAAEESLPIEVMVDAVHKLKYENYTSSFFIRDIIKPDPPKNLQLKPLKNSRQVEVSWEYPDTWSTPHSYFSLTFCVQVQGKSKREKKDRVFTDKTSATVICRKNASISVRAQDRYYSSSWSEWASVPCSGGGGSGGGSGGGGSRNLPVATPDPGMFPCLHHSQNLLRAVSNMLQKARQTLEFYPCTSEEIDHEDITKDKTSTVEACLPLELTKNESCLNSRETSFITNGSCLASRKTSFMMALCLSSIYEDLKMYQVEFKTMNAKLLMDPKRQIFLDQNMLAVIDELMQALNFNSETVPQKSSLEEPDFYKTKIKLCILLHAFRIRAVTIDRVMSYLNASGGGGSGGGDKTHTCPPCPAPEDEGGPSVFLFPPKPKDTLMISRTPEVTCVVVDVSHEDPEVKFNWYVDGVEVHNAKTKPREEQYNSTYRVVSVLTVLHQDWLNGKEYKCKVSNKALPAPIEKTISKAKGQPREPQVYVYPPSREEMTKNQVSLTCLVKGFYPSDIAVEWESNGQPENNYKTTPPVLDEDGSFALVSKLTVDKSRWQQGNVFSCSVMHEALHNHYTQKSLSLSPGK
chain 2: WPPPGTGDVVVQAPTQVPGFLGDSVTLPCYLQVPNMEVTHVSQLTWARHGESGSMAVFHQTQGPSYSESKRLEFVAARLGAELRNASLRMFGLRVEDEGNYTCLFVTFPQGSRSVDIWLRVLAKPQNTAEVQKVQLTGEPVPMARCVSTGGRPPAQITWHSDLGGMPNTSQVPGFLSGTVTVTSLWILVPSSQVDGKNVTCKVEHESFEKPQLLTVNLTVYYPPEVSISGYDNNWYLGQNEATLTCDARSNPEPTGYNWSTTMGPLPPFAVAQGAQLLIRPVDKPINTTLICNVTNALGARQAELTVQVKEGPPSEHSGISRNGGGGSGGGDKTHTCPPCPAPEKKGGPSVFLFPPKPKDTLMISRTPEVTCVVVDVSHEDPEVKFNWYVDGVEVHNAKTKPREEQYNSTYRVVSVLTVLHQDWLNGKEYKCKVSNKALPAPIEKTISKAKGQPREPQVYVLPPSREEMTKNQVSLLCLVKGFYPSDIAVEWESNGQPENRYMTWPPVLDSDGSFFLYSKLTVDKSRWQQGNVFSCSVMHEALHNHYTQKSLSLSPGK
B2: IL-12(E59A/F60A)/IL-2(L18R/Q22E/R38D/K43E/E61R)/CD155-Fc (Fc fusion)
chain 1: B1 chain 1
chain 2: WPPPGTGDVVVQAPTQVPGFLGDSVTLPCYLQVPNMEVTHVSQLTWARHGESGSMAVFHQTQGPSYSESKRLEFVAARLGAELRNASLRMFGLRVEDEGNYTCLFVTFPQGSRSVDIWLRVLAKPQNTAEVQKVQLTGEPVPMARCVSTGGRPPAQITWHSDLGGMPNTSQVPGFLSGTVTVTSLWILVPSSQVDGKNVTCKVEHESFEKPQLLTVNLTVYYPPEVSISGYDNNWYLGQNEATLTCDARSNPEPTGYNWSTTMGPLPPFAVAQGAQLLIRPVDKPINTTLICNVTNALGARQAELTVQVKEGPPSEHSGISRNGGGSGAPTSSSTKKTQLQLEHLRLDLEMILNGINNYKNPKLTDMLTFEFYMPKKATELKHLQCLERELKPLEEVLNLAQSKNFHLRPRDLISNINVIVLELKGSETTFMCEYADETATIVEFLNRWITFCQSIISTLTGGGGSGGGDKTHTCPPCPAPEKKGGPSVFLFPPKPKDTLMISRTPEVTCVVVDVSHEDPEVKFNWYVDGVEVHNAKTKPREEQYNSTYRVVSVLTVLHQDWLNGKEYKCKVSNKALPAPIEKTISKAKGQPREPQVYVLPPSREEMTKNQVSLLCLVKGFYPSDIAVEWESNGQPENRYMTWPPVLDSDGSFFLYSKLTVDKSRWQQGNVFSCSVMHEALHNHYTQKSLSLSPGK
B3: IL-2(R38D/K43E/E61R/Q126T)/CD155-Fc (Fc fusion)
chain 1: B1 chain 2 with K345D, K346E, L462Y, L477T, R501N, M503K, W505T, S511E, F516A, Y518V
chain 2: B2 chain 2 with R346L, E350Q, Q454T
B4: CD155-Fc (control) (Fc fusion)
chain 1: B1 chain 2 with K345D, K346E, L462Y, L477T, R501N, M503K, W505T, S511E, F516A, Y518V
chain 2: B1 chain 2
B5: IL-2(L18R/Q22E/R38D/K43E/E61R/Q126T)/CD155-Fc (Fc fusion)
chain 1: B1 chain 2 with K345D, K346E, L462Y, L477T, R501N, M503K, W505T, S511E, F516A, Y518V
chain 2: B2 chain 2 with Q454T
B6: IL-2(L18R/Q22E/R38D/K43E/E61R/Q126T/S130R)/CD155-Fc (Fc fusion)
chain 1: B1 chain 2 with K345D, K346E, L462Y, L477T, R501N, M503K, W505T, S511E, F516A, Y518V
chain 2: B2 chain 2 with Q454T, S458R
B7: IL-2(L18R/Q22E/R38D/K43E/E61R)/CD155-Fc (Fc fusion)
chain 1: B1 chain 2 with K345D, K346E, L462Y, L477T, R501N, M503K, W505T, S511E, F516A, Y518V
chain 2: B2 chain 2
B8: IL-12(E59A/F60A)/IL-2(R38D/K43E/E61R/Q126T)/CD155-Fc (Fc fusion)
chain 1: B1 chain 1
chain 2: B2 chain 2 with R346L, E350Q, Q454T

What was measured:
Assay in all cases: cell-based or functional assay
[1] = target: T1, human IL-2 receptor (IL-2Rα, IL-2Rβ, IL-2Rγ) (human, UniProt P01589 22-272; P14784 27-551; P31785 23-369)
T1 sequence (looked up) 1: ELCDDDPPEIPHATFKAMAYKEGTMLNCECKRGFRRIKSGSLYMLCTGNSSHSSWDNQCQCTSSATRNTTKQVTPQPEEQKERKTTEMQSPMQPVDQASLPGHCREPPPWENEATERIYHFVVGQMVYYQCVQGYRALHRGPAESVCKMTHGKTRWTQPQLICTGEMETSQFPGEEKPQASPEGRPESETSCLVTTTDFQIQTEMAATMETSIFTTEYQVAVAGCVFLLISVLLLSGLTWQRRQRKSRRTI
T1 sequence (looked up) 2: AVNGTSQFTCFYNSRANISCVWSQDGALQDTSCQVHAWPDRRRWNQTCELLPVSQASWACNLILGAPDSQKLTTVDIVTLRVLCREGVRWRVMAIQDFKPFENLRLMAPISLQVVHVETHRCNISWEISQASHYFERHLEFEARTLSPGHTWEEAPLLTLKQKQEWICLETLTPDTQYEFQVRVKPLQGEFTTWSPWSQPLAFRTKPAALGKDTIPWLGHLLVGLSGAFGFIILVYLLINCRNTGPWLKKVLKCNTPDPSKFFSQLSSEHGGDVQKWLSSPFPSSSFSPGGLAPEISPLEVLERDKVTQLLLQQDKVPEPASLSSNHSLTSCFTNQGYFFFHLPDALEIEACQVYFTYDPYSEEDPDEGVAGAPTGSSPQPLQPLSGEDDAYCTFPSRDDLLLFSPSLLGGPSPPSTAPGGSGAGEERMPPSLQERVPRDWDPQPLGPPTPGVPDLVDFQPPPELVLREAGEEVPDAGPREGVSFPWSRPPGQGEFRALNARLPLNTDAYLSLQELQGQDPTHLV
T1 sequence (looked up) 3: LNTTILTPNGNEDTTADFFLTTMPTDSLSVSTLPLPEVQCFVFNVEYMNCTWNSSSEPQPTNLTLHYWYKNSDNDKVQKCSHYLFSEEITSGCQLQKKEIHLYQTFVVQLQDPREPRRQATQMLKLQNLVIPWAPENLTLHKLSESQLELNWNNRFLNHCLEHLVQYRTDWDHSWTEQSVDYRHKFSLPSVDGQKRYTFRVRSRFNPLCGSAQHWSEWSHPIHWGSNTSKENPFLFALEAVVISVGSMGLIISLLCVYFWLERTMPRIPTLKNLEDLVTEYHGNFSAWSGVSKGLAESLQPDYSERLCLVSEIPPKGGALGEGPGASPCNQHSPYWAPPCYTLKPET

[2] = target: human IL-12 receptor complex (IL-12Rβ1 and IL-12Rβ2) (human, UniProt P42701 24-662; Q99665 24-862)
[3] = target: T2, human TIGIT on HEK-Blue reporter cells (human, UniProt Q495A1 22-244)
T2 sequence (looked up): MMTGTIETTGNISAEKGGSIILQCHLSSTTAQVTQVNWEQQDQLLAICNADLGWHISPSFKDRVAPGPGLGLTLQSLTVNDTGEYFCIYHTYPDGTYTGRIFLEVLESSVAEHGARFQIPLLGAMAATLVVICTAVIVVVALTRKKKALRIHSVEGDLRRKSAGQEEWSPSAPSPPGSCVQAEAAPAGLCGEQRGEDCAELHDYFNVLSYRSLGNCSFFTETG

Sequence of human IL-12 receptor complex (IL-12Rβ1 and IL-12Rβ2) (Q99665 24-862, chain 2 of 2, other chains not shown): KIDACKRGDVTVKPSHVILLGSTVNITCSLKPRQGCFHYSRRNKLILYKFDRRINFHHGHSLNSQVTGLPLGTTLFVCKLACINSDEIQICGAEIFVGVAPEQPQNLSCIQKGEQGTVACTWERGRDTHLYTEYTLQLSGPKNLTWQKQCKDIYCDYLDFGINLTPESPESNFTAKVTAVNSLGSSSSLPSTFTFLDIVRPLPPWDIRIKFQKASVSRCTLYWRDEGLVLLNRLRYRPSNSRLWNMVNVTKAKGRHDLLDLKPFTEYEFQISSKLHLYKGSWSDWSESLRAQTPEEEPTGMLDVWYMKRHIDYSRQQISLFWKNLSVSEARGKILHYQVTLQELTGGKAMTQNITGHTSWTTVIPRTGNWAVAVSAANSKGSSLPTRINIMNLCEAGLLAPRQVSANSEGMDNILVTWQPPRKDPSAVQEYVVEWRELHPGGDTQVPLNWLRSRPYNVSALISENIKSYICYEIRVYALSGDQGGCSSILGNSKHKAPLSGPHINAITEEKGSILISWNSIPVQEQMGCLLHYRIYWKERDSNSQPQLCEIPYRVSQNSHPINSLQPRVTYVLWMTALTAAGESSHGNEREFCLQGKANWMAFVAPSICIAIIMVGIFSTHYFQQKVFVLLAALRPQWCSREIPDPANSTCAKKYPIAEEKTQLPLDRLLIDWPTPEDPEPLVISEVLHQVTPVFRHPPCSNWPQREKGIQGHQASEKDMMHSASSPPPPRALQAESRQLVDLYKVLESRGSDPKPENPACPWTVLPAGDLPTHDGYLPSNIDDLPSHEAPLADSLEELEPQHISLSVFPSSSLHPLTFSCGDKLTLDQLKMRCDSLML

IL-2 signal transduction, HEK-IL-2 [1] [%]	IL-12 signal transduction, HEK-IL-12 [2] [%]	IL-2 signal transduction, HEK-IL-2-TIGIT [3] [%]	IL-12 signal transduction, HEK-IL-12-TIGIT [3] [%]	Binder
< 0.1	< 0.2	< 0.1	21	B1
12	< 0.2	78	21	B2
3		29		B3
< 0.1		< 0.1		B4
2		15		B5
< 0.1		< 0.1		B6
9		56		B7
4	< 0.2	35	17	B8
